Results as given in IntAct's records for PubMed 31515488.

B1: E3 ubiquitin-protein ligase RNF8 (Homo sapiens), O76064 (parent)
chain: MGEPGFFVTGDRAGGRSWCLRRVGMSAGWLLLEDGCEVTVGRGFGVTYQLVSKICPLMISRNHCVLKQNPEGQWTIMDNKSLNGVWLNRARLEPLRVYSIHQGDYIQLGVPLENKENAEYEYEVTEEDWETIYPCLSPKNDQMIEKNKELRTKRKFSLDELAGPGAEGPSNLKSKINKVSCESGQPVKSQGKGEVASTPSDNLDPKLTALEPSKTTGAPIYPGFPKVTEVHHEQKASNSSASQRSLQMFKVTMSRILRLKIQMQEKHEAVMNVKKQTQKGNSKKVVQMEQELQDLQSQLCAEQAQQQARVEQLEKTFQEEEQHLQGLEIAQGEKDLKQQLAQALQEHWALMEELNRSKKDFEAIIQAKNKELEQTKEEKEKMQAQKEEVLSHMNDVLENELQCIICSEYFIEAVTLNCAHSFCSYCINEWMKRKIECPICRKDIKSKTYSLVLDNCINKMVNNLSSEVKERRIVLIRERKAKRLF
B2: Zinc finger protein Aiolos (Homo sapiens), Q9UKT9 (parent)
chain: MEDIQTNAELKSTQEQSVPAESAAVLNDYSLTKSHEMENVDSGEGPANEDEDIGDDSMKVKDEYSERDENVLKSEPMGNAEEPEIPYSYSREYNEYENIKLERHVVSFDSSRPTSGKMNCDVCGLSCISFNVLMVHKRSHTGERPFQCNQCGASFTQKGNLLRHIKLHTGEKPFKCHLCNYACQRRDALTGHLRTHSVEKPYKCEFCGRSYKQRSSLEEHKERCRTFLQSTDPGDTASAEARHIKAEMGSERALVLDRLASNVAKRKSSMPQKFIGEKRHCFDVNYNSSYMYEKESELIQTRMMDQAINNAISYLGAEALRPLVQTPPAPTSEMVPVISSMYPIALTRAEMSNGAPQELEKKSIHLPEKSVPSERGLSPNNSGHDSTDTDSNHEERQNHIYQQNHMVLSRARNGMPLLKEVPRSYELLKPPPICPRDSVKVINKEGEVMDVYRCDHCRVLFLDYVMFTIHMGCHGFRDPFECNMCGYRSHDRYEFSSHIARGEHRALLK
partner: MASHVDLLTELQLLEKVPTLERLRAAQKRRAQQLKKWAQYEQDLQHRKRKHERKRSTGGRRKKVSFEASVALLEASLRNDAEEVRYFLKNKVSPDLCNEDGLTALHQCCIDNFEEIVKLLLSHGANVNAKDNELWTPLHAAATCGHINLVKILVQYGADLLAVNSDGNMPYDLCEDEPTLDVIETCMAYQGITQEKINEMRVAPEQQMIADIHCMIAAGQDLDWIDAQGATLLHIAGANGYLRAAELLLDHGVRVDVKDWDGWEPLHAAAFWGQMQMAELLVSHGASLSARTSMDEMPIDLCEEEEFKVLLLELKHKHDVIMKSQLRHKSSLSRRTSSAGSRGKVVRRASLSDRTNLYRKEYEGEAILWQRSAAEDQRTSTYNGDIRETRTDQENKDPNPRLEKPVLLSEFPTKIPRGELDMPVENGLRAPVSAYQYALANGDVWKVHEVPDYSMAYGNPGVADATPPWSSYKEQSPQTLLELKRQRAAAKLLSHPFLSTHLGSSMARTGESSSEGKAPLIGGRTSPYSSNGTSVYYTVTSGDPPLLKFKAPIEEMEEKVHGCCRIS
B3: Beta-taxilin (Homo sapiens), Q8N3L3 (parent)
chain: MEANHSEQLSAERQSTPPGDSSSLPSHNGLEKEDGQDSPTPVQPPEKEASVHPDISEELNRQLEDIINTYGSAASTAGKEGSARASEQPENAESPDNEDGDCEETTEEAGREPVASGEPPTVKEPVSNKEQKLEKKILKGLGKEANLLMQNLNKLQTPEEKFDFLFKKYAELLDEHRTEQKKLKLLQKKQVQIQKEKDQLQGEHSRAILARSKLESLCRELQRHNKTLKEEALQRAREEEEKRKEITSHFQSTLTDIQGQIEQQSERNMKLCQENTELAEKLKSIIDQYELREEHLDKIFKHRELQQKLVDAKLEQAQEMMKEAEERHKREKEYLLNQAAEWKLQAKVLKEQETVLQAQLTLYSGRFEEFQSTLTKSNEVFATFKQEMDKTTKKMKKLEKDTATWKARFENCNKALLDMIEEKALRAKEYECFVMKIGRLENLCRALQEERNELHKKIRDAEISEKDDQSQHNSDEEPESNVSVDQEIDAEEVNSVQTAVKNLATAFMIIHHPESTPHQSKETQPEIGSSQESADAALKEPEQPPLIPSRDSESPLPPLTPQAEAEGGSDAEPPSKASNSPAGLGAETQCEGLPVGAQADQASWKPEAEASGQAPQAPTEASLQKMEADVPAPACAAEEHVAAMVPACEPSRQPPRAAAEELPVGASAGPQPRNVADTNLEGVD
partner: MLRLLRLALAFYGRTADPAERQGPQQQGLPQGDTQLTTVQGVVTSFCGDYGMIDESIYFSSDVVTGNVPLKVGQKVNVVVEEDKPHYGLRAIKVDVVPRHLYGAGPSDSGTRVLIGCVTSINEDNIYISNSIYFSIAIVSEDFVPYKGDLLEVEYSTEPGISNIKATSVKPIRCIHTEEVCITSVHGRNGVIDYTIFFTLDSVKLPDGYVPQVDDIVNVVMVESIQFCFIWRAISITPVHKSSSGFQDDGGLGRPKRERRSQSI
B4: von Hippel-Lindau disease tumor suppressor (Homo sapiens), P40337-2 (parent)
chain: MPRRAENWDEAEVGAEEAGVEEYGPEEDGGEESGAEESGPEESGPEELGAEEEMEAGRPRPVLRSVNSREPSQVIFCNRSPRVVLPVWLNFDGEPQPYPTLPPGTGRRIHSYRVYTLKERCLQVVRSLVKPENYRRLDIVRSLYEDLEDHPNVQKDLERLTQERIAHQRMGD
B5: Serine/threonine-protein kinase PAK 5 (Homo sapiens), Q9P286 (parent)
chain: MFGKKKKKIEISGPSNFEHRVHTGFDPQEQKFTGLPQQWHSLLADTANRPKPMVDPSCITPIQLAPMKTIVRGNKPCKETSINGLLEDFDNISVTRSNSLRKESPPTPDQGASSHGPGHAEENGFITFSQYSSESDTTADYTTEKYREKSLYGDDLDPYYRGSHAAKQNGHVMKMKHGEAYYSEVKPLKSDFARFSADYHSHLDSLSKPSEYSDLKWEYQRASSSSPLDYSFQFTPSRTAGTSGCSKESLAYSESEWGPSLDDYDRRPKSSYLNQTSPQPTMRQRSRSGSGLQEPMMPFGASAFKTHPQGHSYNSYTYPRLSEPTMCIPKVDYDRAQMVLSPPLSGSDTYPRGPAKLPQSQSKSGYSSSSHQYPSGYHKATLYHHPSLQSSSQYISTASYLSSLSLSSSTYPPPSWGSSSDQQPSRVSHEQFRAALQLVVSPGDPREYLANFIKIGEGSTGIVCIATEKHTGKQVAVKKMDLRKQQRRELLFNEVVIMRDYHHDNVVDMYSSYLVGDELWVVMEFLEGGALTDIVTHTRMNEEQIATVCLSVLRALSYLHNQGVIHRDIKSDSILLTSDGRIKLSDFGFCAQVSKEVPKRKSLVGTPYWMAPEVISRLPYGTEVDIWSLGIMVIEMIDGEPPYFNEPPLQAMRRIRDSLPPRVKDLHKVSSVLRGFLDLMLVREPSQRATAQELLGHPFLKLAGPPSCIVPLMRQYRHH
B6: Cyclic AMP-dependent transcription factor ATF-4 (Homo sapiens), P18848 (parent)
chain: MTEMSFLSSEVLVGDLMSPFDQSGLGAEESLGLLDDYLEVAKHFKPHGFSSDKAKAGSSEWLAVDGLVSPSNNSKEDAFSGTDWMLEKMDLKEFDLDALLGIDDLETMPDDLLTTLDDTCDLFAPLVQETNKQPPQTVNPIGHLPESLTKPDQVAPFTFLQPLPLSPGVLSSTPDHSFSLELGSEVDITEGDRKPDYTAYVAMIPQCIKEEDTPSDNDSGICMSPESYLGSPQHSPSTRGSPNRSLPSPGVLCGSARPKPYDPPGEKMVAAKVKGEKLDKKLKKMEQNKTAATRYRQKKRAEQEALTGECKELEKKNEALKERADSLAKEIQYLKDLIEEVRKARGKKRVP
partner: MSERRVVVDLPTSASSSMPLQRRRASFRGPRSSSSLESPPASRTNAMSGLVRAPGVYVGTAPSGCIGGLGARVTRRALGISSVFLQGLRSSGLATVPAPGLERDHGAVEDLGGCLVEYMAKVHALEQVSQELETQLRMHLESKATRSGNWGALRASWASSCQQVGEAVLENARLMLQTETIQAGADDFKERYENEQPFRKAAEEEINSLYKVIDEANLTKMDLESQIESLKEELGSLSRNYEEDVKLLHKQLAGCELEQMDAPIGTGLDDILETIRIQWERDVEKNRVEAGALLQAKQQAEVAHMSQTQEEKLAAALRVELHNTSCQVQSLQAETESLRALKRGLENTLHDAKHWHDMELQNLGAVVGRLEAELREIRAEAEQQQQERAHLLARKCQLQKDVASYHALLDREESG
B7: Zinc finger protein Aiolos (Homo sapiens), Q9UKT9 (parent)
chain: B2 chain
partner: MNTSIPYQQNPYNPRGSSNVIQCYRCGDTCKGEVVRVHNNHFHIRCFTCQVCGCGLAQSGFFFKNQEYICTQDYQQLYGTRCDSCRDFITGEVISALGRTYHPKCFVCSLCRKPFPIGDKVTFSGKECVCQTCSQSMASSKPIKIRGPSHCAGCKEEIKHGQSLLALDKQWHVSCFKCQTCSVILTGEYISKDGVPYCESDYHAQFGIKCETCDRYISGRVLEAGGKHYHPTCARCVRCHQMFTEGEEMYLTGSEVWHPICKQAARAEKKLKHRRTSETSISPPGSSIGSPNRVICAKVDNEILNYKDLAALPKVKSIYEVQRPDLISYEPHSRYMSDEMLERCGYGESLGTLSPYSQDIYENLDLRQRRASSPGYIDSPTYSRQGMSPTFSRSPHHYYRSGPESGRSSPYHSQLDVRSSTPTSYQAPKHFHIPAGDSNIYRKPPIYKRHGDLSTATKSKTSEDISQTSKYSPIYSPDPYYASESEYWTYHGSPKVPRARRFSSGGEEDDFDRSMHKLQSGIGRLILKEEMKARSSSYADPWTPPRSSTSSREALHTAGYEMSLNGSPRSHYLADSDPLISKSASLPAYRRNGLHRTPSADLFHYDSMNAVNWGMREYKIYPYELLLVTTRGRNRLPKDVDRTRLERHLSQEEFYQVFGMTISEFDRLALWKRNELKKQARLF

Variants of: B1
Settings: with sept3_human SEPTIN3, Q9UH03
Sequence of sept3_human SEPTIN3, Q9UH03 (Q9UH03 whole entry): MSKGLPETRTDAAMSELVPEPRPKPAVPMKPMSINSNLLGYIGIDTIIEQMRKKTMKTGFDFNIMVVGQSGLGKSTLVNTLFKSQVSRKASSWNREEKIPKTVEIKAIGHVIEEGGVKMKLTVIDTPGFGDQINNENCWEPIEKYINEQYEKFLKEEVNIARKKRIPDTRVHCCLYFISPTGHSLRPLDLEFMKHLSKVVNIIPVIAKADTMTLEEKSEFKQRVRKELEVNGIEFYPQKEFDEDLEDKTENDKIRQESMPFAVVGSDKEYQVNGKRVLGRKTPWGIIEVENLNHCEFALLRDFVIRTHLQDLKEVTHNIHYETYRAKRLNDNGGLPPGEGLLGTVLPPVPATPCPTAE

effect of a mutation on the interaction | Variant
with no effect | V310L

Variants of: B1
Settings: with wasl_human WASL

effect of a mutation on the interaction | Variant
with no effect | V310L

Variants of: B2
Settings: with pp16b_human PPP1R16B

effect of a mutation on the interaction | Variant
with no effect | A24V
with no effect | N119D

Variants of: B3
Settings: with ct55_human CT55, Q8WUE5

effect of a mutation on the interaction | Variant
with no effect | T361A
with no effect | T523I

Variants of: B4
Settings: with mdfi_human MDFI

effect of a mutation on the interaction | Variant
disrupting interaction strength | F76S
disrupting interaction strength | H167D
with no effect | S65W

Variants of: B5
Settings: with uxt_human UXT

effect of a mutation on the interaction | Variant
with no effect | V604I
with no effect | S511N
with no effect | R335P

Variants of: B5
Settings: with fhl3_human FHL3, Q13643
Sequence of fhl3_human FHL3, Q13643 (Q13643 whole entry): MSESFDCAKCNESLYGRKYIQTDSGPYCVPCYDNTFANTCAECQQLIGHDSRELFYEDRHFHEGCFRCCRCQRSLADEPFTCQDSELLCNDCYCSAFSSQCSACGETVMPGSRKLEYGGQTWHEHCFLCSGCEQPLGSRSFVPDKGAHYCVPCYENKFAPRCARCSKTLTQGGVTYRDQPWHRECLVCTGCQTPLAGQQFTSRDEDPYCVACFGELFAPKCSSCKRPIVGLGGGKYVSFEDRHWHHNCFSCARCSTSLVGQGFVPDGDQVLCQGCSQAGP

effect of a mutation on the interaction | Variant
with no effect | V604I
with no effect | S511N

Variants of: B5
Settings: with pdli7_human PDLIM7, Q9NR12
Sequence of pdli7_human PDLIM7, Q9NR12 (Q9NR12 whole entry): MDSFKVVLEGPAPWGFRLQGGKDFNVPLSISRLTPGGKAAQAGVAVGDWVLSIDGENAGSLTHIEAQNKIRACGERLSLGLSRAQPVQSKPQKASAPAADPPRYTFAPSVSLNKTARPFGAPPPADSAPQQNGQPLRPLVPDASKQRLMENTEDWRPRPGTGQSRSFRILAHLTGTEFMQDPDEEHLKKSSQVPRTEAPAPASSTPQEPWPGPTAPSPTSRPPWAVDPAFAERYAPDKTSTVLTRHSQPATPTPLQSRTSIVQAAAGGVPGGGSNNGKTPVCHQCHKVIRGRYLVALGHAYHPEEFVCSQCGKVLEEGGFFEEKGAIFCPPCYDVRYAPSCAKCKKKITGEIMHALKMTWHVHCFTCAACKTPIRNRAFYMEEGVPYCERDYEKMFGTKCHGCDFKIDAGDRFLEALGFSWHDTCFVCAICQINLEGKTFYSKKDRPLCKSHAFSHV

effect of a mutation on the interaction | Variant
with no effect | V604I
with no effect | S511N

Variants of: B5
Settings: with crbn_human CRBN

effect of a mutation on the interaction | Variant
with no effect | R335P

Variants of: B5
Settings: with gcp4_human TUBGCP4, Q9UGJ1
Sequence of gcp4_human TUBGCP4, Q9UGJ1 (Q9UGJ1 whole entry): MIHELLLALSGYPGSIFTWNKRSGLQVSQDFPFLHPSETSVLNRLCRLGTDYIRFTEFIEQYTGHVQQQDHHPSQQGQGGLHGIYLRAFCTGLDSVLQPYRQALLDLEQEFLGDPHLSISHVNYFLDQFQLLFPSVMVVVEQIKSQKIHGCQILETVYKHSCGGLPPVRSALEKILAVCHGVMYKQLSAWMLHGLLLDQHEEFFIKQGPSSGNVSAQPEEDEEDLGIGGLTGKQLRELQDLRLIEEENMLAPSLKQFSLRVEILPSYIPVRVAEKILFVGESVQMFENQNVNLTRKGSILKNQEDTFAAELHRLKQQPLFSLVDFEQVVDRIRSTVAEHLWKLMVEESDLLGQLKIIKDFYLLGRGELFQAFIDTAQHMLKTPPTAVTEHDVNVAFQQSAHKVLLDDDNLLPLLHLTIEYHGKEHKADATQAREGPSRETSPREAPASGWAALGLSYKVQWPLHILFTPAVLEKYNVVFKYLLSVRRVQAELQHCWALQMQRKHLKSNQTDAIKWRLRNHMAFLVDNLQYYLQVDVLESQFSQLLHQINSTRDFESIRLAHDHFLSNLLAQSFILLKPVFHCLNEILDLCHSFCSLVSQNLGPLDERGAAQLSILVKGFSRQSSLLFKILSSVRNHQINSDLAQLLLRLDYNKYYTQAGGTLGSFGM

effect of a mutation on the interaction | Variant
with no effect | R335P

Variants of: B6
Settings: with bfsp2_human BFSP2, Q13515

effect of a mutation on the interaction | Variant
with no effect | T137S
disrupting interaction strength | E322D
with no effect | A324V
with no effect | P258A

Variants of: B7
Settings: with ablm3_human ABLIM3, O94929

effect of a mutation on the interaction | Variant
with no effect | A24V
